Experiment [1] deals with T1, human TLR3 ectodomain (huTLR3-ECD) (Homo sapiens, UniProt O15455).
T1 construct: The human TLR3-ECD (27-700) was modified with an N-terminal gb67 leader and a C-terminal 6× poly histidine tag; gb67 (gp67) secretion leader (N); 6xHis (C); made in house; host or cells: Sf21 insect cells (baculovirus, pFastBac1, Bac-to-Bac)
The experiment can be described thus: In vitro binding by size exclusion chromatography and immunoblot. The conditions noted are these: chondroitinase ABC digested BGN incubated with TLR3 ECD.

In experiment [2] the target is T1, human TLR3 ectodomain (huTLR3-ECD). Description: In vitro binding by co-immunoprecipitation. The conditions noted are these: purified TLR3 ectodomain and purified BGN. As for the experimental part:
The human TLR3-ECD (27-700) was modified with an N-terminal gb67 leader and a C-terminal 6× poly histidine tag and the sequence was produced synthetically (Geneart) and cloned into a pFastBac1 vector. The virus was generated and amplified at large scale levels using a Sf21 insect cell-line (Bac-to-Bac®). One liter Sf21 cell culture was infected and harvested at 72 hours. The culture was centrifuged at 1000×g for 30 min and the supernatant was filtered through a 0.2 μm nitrocellulose membrane. The filtrate was loaded onto a 5 ml His Trap EXCEL column (GE, 17-3712-06) using a peristaltic pump. […] The protein fractions were analyzed by SDS-PAGE and TLR3 containing fractions were pooled and concentrated to a final volume of ˜500 μl using a spin concentrator (Vivaspin®20) with a 10 kDa molecular weight cut-off. […] TLR3 containing fractions were analyzed by SDS-PAGE and pooled and concentrated to 1 mg/ml. Protein concentration was estimated using a Nano Drop by measuring the absorbance at 280 nm (MW=[…], ε=61.9 mol^−1 cm^−1).
The human BGN (38-368) was modified with an N-terminal Secrecon tag followed by a 6× poly histidine tag and a Strep-Tag II. […] The protein fractions were analyzed by SDS-PAGE and BGN containing fractions were pooled and concentrated to a final volume of ˜500 μl using a spin concentrator (Vivaspin®20) with a 10 kDa molecular weight cut-off. […]

B1: BGN: proteoglycan biglycan (BGN), a structural protein of the extracellular matrix (ECM) (protein)
chain: DEEASGAETTSGIPDLDSLPPTYSAMCPFGCHCHLRVVQCSDLGLKAVPKEISPDTTLLDLQNNDISELRKDDFKGLQHLYALVLVNNKISKIHEKAFSPLRKLQKLYISKNHLVEIPPNLPSSLVELRIHDNRIRKVPKGVFSGLRNMNCIEMGGNPLENSGFEPGAFDGLKLNYLRISEAKLTGIPKDLPETLNELHLDHNKIQAIELEDLLRYSKLYRLGLGHNQIRMIENGSLSFLPTLRELHLDNNKLSRVPAGLPDLKLLQVVYLHTNNITKVGVNDFCPVGFGVKRAYYNGISLFNNPVPYWEVQPATFRCVTDRLAIQFGNYKK
As to B1, the “binding to huTLR3-ECD by size-exclusion chromatography followed by immunoblotting” value in experiment [1] is reported as “co-elution”; in experiment [1] (listed as huBGN), “weak binding interaction”. In experiment [2], the “interaction with huTLR3-ECD by immunoprecipitation” value is “confirmed this interaction”.

Values taken from patent US20250011869A1, “TLR3 INHIBITORS FOR USE IN THE TREATMENT OF DISEASES ASSOCIATED WITH CARDIOVASCULAR CALCIFICATION” (priority 2021, published 2025).
